Reference: paper doi:10.1101/2021.12.09.471704
Read-outs that look alike come from different tables or passages of the source.

Legend:
[1] = target: T1, SiAgo (complex subunit);SiAga1 (complex subunit) (Sulfolobus islandicus M164;Sulfolobus …, UniProt C4KI01;C4KI00 1-459;1-243, |); test: competition
T1 sequence 1: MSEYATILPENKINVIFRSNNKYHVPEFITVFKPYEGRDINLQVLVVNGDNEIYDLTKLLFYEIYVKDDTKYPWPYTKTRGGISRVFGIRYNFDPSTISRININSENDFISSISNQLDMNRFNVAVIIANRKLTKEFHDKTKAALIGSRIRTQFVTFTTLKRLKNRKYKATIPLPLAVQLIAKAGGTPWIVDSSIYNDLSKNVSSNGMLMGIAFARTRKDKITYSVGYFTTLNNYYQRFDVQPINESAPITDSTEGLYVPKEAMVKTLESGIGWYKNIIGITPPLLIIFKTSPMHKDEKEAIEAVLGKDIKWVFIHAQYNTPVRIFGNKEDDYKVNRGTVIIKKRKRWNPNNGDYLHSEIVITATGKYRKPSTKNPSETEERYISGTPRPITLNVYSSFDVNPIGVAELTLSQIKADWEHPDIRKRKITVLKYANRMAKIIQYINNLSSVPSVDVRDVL
T1 sequence 2: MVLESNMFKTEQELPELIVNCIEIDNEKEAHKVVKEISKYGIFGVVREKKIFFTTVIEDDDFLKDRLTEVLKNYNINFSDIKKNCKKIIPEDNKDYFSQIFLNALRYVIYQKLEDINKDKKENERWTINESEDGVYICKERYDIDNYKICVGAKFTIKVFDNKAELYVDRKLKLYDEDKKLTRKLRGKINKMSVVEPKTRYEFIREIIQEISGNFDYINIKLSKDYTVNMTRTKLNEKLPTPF

[2] = target: T1, SiAgo (complex subunit);SiAga1 (complex …); test: EMSA
[3] = target: T2, SiAgo M2;SiAga1 (complex subunit) (Sulfolobus islandicus M164;Sulfolobus …, UniProt C4KI01;C4KI00 1-459;1-243, K183A|); test: EMSA
T2 sequence 1: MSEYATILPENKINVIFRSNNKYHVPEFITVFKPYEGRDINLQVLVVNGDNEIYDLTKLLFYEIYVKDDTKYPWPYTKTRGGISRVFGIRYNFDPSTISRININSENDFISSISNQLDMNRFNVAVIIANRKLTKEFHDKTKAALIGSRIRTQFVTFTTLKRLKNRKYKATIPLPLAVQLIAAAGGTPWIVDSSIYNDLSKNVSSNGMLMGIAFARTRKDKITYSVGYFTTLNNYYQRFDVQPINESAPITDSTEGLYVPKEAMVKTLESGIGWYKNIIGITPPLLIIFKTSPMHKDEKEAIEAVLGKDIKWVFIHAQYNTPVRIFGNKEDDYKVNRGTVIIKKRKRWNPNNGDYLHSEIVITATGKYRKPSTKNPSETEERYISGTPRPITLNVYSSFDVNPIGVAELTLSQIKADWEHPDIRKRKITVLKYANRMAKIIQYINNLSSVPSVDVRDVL
T2 sequence 2: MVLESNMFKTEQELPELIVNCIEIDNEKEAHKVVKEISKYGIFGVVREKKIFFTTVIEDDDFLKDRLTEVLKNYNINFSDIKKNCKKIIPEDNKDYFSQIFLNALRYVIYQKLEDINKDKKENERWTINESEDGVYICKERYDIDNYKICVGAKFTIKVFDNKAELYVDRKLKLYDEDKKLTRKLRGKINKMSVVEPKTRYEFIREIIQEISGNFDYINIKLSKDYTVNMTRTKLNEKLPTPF

[4] = target: T3, SiAgo M1;SiAga1 (complex subunit) (Sulfolobus islandicus M164;Sulfolobus …, UniProt C4KI01;C4KI00 1-459;1-243, K142A|); test: EMSA
T3 sequence 1: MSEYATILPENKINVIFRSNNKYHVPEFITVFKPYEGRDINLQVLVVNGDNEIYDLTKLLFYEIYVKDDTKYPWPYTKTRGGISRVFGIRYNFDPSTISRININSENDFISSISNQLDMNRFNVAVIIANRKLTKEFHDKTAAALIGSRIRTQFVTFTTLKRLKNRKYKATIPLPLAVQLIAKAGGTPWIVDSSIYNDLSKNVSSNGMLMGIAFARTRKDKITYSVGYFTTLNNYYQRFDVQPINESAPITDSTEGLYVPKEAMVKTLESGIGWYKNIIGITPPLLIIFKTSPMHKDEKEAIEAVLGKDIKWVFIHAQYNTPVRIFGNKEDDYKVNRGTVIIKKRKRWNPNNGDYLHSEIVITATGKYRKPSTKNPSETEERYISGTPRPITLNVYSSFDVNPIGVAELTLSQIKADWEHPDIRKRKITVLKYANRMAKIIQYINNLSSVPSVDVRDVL
T3 sequence 2: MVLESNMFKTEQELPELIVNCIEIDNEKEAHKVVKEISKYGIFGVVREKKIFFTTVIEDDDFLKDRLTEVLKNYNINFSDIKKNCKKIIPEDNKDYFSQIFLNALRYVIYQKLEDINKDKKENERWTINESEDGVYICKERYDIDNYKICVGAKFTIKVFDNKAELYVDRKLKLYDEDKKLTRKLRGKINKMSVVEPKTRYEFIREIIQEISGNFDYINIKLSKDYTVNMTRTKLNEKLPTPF

[5] = target: T4, SiAgo (Sulfolobus islandicus M164, UniProt C4KI01 1-459); test: EMSA
T4 sequence: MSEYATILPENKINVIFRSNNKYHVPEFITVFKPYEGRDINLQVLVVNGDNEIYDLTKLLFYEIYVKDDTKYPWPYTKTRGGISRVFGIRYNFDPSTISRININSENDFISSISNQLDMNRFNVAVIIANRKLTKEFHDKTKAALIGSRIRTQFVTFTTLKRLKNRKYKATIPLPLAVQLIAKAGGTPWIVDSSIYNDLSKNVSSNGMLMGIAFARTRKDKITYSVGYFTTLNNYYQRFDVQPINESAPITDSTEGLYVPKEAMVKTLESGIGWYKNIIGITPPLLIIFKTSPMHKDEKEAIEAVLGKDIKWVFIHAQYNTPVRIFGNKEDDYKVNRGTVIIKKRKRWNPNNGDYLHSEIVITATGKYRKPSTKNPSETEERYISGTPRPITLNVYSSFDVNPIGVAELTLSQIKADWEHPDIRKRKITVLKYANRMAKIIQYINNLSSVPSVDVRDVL

[6] = target: T2, SiAgo M2;SiAga1 (complex subunit); test: EMSA; remark: listed apart in the source
[7] = target: T3, SiAgo M1;SiAga1 (complex subunit); test: EMSA; remark: listed apart in the source
[8] = target: T1, SiAgo (complex subunit);SiAga1 (complex …); test: EMSA; remark: listed apart in the source

B1: guide 5P-RNA + TRNA competitor (mixed)
RNA 1: UCAAAGCUUAGAUACCCUGGA
RNA 2: CCUCCAGGGUAUCUAAGCUUUGAA
modifications: guide 5' phosphate
[1]
  binding result: binds

B2: guide 5P-RNA + TDNA competitor (mixed)
RNA: UCAAAGCUUAGAUACCCUGGA
DNA: CCTCCAGGGTATCTAAGCTTTGAA
modifications: guide 5' phosphate
[1]
  binding result: binds

B3: guide 5P-RNA + TDNA (mixed)
RNA: UCAAAGCUUAGAUACCCUGGA
DNA: CCTCCAGGGTATCTAAGCTTTGAA
modifications: guide 5' phosphate
[2]
  binding result: binds
[3]
  binding result: binds
[4]
  binding result: binds

## UCAAAGCUUAGAUACCCUGGA (ssRNA, 5' phosphate) [5P-RNA]
[5]
  binding result: binds
[6]
  binding result: binds
[7]
  binding result: binds
[8]
  binding result: binds

B4: guide 5P-RNA + TRNA (mixed)
RNA 1: UCAAAGCUUAGAUACCCUGGA
RNA 2: CCUCCAGGGUAUCUAAGCUUUGAA
modifications: guide 5' phosphate
[2]
  binding result: binds
